Test results published in patent publication US20170137509A1 (AFFIRIS, published 2017).
One block for each binder: values may come before it.

Columns and labels:
[1] = biological target: T1, full length Opn (flOpn) (human, UniProt P10451 17-314); test: ELISA on plates coated with recombinant human Opn, HRP anti-mouse IgG, OD 405 nm
T1 construct: Recombinant, expressed in HEK293 c18 cells as 'Strep-314 AA (full length Opn)-6xHis'; ELISA and Western blot also used PeproTech Cat#120-35 as control, and Western lanes 1-4 hold full length Opn proteins with different tag systems; also called Strep-314 AA (full length Opn)-6xHis; full length osteopontin; not shown: N-terminal OneStrep-tag
Protocol: (§1) ELISA plates (Nunc, Cat#439454) were coated with 1 μg/ml recombinant human Opn proteins (home-made or from PeproTech, Cat#120-35 as control) in 100 mM NaHCO3 pH=9,2 and blocked with 1% BSA in 1×PBS. Bound mouse anti-human monoclonal antibodies (BioGenes, 1 μg/ml) and the mouse serum used as positive control were detected using a HRP-conjugated goat anti-mouse IgG antibody ([…], Cat#115-035-068, 0.2 μg/ml). ABTS (0.68 mM ABTS in 0.1 M citric acid, pH=4.3) and 0.1% hydrogen peroxide was used as a substrate for the horse radish peroxidase (HRP). The substrate reaction was stopped by adding 1% SDS solution to the wells. The absorbance was read at 405 nm using a microplate reader (TECAN Sunrise).

[2] = biological target: T2, biotinylated peptide ligand representing MmpOpn (SPR); test: SPR (Biacore 2000), biotinylated peptide on streptavidin chip, mAb injected at 2 ug/ml
Protocol: (§2) Binding analyses were performed on a Biacore 2000. The different biotinylated peptide ligands representing the different Opn products were immobilized on a streptavidin chip in one flow cell respectively, with a flow rate of 30 μl/min. The fourth flow cell is a reference cell without peptide. The peptides were dissolved in a DMSO solution and further diluted in HBS buffer (0.01M Hepes, 0.1M NaCl, 0.004M EDTA, 0.05% P20, pH=7.4). After immobilization, the chips in each flow cell were saturated with 1 μM D-Biotin. As a control, an unspecific serum was injected through all cells. The flow rate of the antibodies was 30 μl/min at a concentration of 2 μg/ml, volume injected 100 μl. The dissociation time was set at 500 sec. The chips were regenerated with 60 μl of 50 mM HCl. Off-rate values and KD values were calculated using the Biocore SPR software.
(§3) In order to define the binding strength of selected mAbs against their individual targets SPR analysis was performed using peptides representing the different Opn products. […] Thus in a situation where multiple washing steps are included (e.g. in the used functional cell based adhesion assay) the antibody will be washed away from its target. […] In a more physiological situation where antibody persistence is not influenced by steps depleting the antibody, mAb 4-4-2 is expected also display functional activity.

[3] = biological target: T3, biotinylated peptide ligand representing ThrOpn (SPR); test: SPR (Biacore 2000), biotinylated peptide on streptavidin chip, mAb injected at 2 ug/ml; one value printed for 'ThrOpn and MmpOpn'
[4] = biological target: T2, biotinylated peptide ligand …; test: as above
[5] = biological target: T4, matrix-metalloproteinase-truncated Opn (MmpOpn) (human, UniProt P10451 17-166, limits assumed); test: ELISA on plates coated with recombinant human Opn, HRP anti-mouse IgG, OD 405 nm
T4 construct: Recombinant, expressed in HEK293 c18 cells; stop codon after 166 AA; also called 1-Opn-166; 6xHis-166 AA (N-terminal MMP-cleaved Opn)
Protocol: as §1

[6] = biological target: T3, biotinylated peptide ligand …; test: SPR (Biacore 2000), biotinylated peptide on streptavidin chip, mAb injected at 2 ug/ml
Protocol: as §2, §3

T1 sequence (P10451 other isoform, or with tags, fused parts or gaps): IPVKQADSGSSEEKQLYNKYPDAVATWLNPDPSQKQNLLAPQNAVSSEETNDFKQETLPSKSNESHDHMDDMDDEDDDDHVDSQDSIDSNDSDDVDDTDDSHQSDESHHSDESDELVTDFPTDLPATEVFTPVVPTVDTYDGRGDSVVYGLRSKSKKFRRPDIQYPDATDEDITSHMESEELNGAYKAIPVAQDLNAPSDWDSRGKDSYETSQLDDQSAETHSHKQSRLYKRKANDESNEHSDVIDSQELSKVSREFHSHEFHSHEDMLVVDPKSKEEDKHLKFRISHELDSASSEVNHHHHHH
T4 sequence (P10451 other isoform, or with tags, fused parts or gaps limits assumed): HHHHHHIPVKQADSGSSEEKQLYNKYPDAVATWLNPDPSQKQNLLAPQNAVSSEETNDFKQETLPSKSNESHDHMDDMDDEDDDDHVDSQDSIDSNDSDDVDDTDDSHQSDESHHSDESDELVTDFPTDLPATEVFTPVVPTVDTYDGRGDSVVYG

- binding result [1]: no binding (tested: 1,00 µg/ml)
- Kd [2]: 1.12 nM
- koff [2]: 8.89e-05 s⁻¹
B1: mAb 7-5-4 (antibody, V domains shown)
VH: EVQLVETGGGLVQPKGALRLSCAVSGITFNTNGMNWVRQAPGRGLEWVARVRSKDYNFATYYADSVKDRFTISRDDSQSMLYLQMNNLRTEDTAMYYCVRPDYYGSSFAYWGQGTLVSVSA
VL: DVLMTQTPLSLPVSLGDQASISCRSSQSIVHSNGNTYLEWYLQKPGQSPKLLIYKVSNRFFGVPDRFSGSGSGTDFTLKISRVEAEDLGVYYCFQGSHVPWTFGGGTKLEIKR
notes: also called Monoclonal Ab 7-5-4

- binding result [1]: no binding (tested: 1,00 µg/ml)
- Kd [2]: 0.97 nM
- koff [2]: 8.79e-05 s⁻¹
B2: mAb 9-3-1 (antibody, IgG1, V domains shown)
VH: B1 VH
VL: B1 VL
notes: tested as a separate clone; also called mAb CMI 9-3

- Kd [3]: 0.84 nM
- koff [3]: 1e-05 s⁻¹
- Kd [4]: 0.84 nM
- koff [4]: 1e-05 s⁻¹
B3: mAb 21-5-4 (antibody, V domains shown)
VH: QVTLKESGPGMLKPSQTLSLTCSFSGFSLSTSGLGIGWIRQPSGKGLEWLAHISWDDSKYYNPSLKNRLTISKDTSRNQVFLKITNVGTADSATYFCARSGGGDSDWGQGTLVTVSA
VL: ANVLTQSPAIMSASPGEKVTMTCSANSSVNSIHWYQQKSSTSPKLWIYDTSKLASGVPGRFSGSGSGDSYSLTISSMEAEDVATYYCFQGSGYPLTFGGGTKLEIKR
notes: also called 21-5-4 mAb; Monoclonal Ab 21-5-4

- binding result [5]: no binding (tested: 1,00 µg/ml)
- binding result [1]: no binding (tested: 1,00 µg/ml)
- Kd [6]: 13.9 nM
- koff [6]: 0.00279 s⁻¹
B4: mAb 4-4-2 (antibody, V domains shown)
VH: QVTLKESGPGILQPSQTLSLTCSFSGFSLSTYGLGVSWIRQPSGKGLEWLAHIYWDDNKRYKSSLKSRLTISKDTSSNQVFLKITSVDTADTATYYCARGTSPGVSFPYWGQGTLVTVSA
VL: DIQMTQSPASLSASVGETVTITCRASENIYSYLAWYQQKQGKSPQFLVYNAKTLAEGVPSRFSGSGSGTQFSLKINSLQPEDFGSYYCQHHYGTPLTFGAGTKLELKR
notes: also called Monoclonal Ab 4-4-2
